In patent US12410245 (UNIVERSITY OF VIRGINIA PATENT FOUNDATION, dated 2025):
Residue numbers refer to the chain shown, from its start. Values joined by “and” are separate entries in the source; they are usually repeats but may differ in a detail not shown here. Identical values can stand only once.

What was measured:
[1] = biological target: FnIII9*10 (UniProt P02751); assay: SPR (Biacore 2000), integrin immobilized, Fn fragment as analyte
[2] = biological target: FnIII9-4G-10 (UniProt P02751); assay: as above
[3] = biological target: FnIII9*10 (UniProt P02751); assay: SPR
[4] = biological target: FnIII9-4G-10 (UniProt P02751); assay: SPR
[5] = biological target: FnIII9-4G-10 (UniProt P02751); assay: SPR, ratio of the KD values (107 nM on FnIII9*10 against 16 nM on FnIII9-4G-10)
[6] = biological target: T1, FnIII6-9 (UniProt P02751-1 1085-1446, limits assumed); assay: SPR, Fn fragment immobilized; SPR, FnIII6-9 immobilized (other target: fragment with the 9th repeat)
T1 construct: domain: FnIII6-9; also called FnIII9 (FnIII6-9); Fn fragment including the 9th type III repeat

[7] = biological target: T2, FnIII10-14 (UniProt P02751-8 1447-1901); assay: SPR, Fn fragment immobilized; SPR, FnIII10-14 immobilized; fitted KD given in the text (FIGS. 9D and 9E)
T2 construct: domain: FnIII10-14; also called FnIII10 (FnIII10-14); Fn fragment including the 10th type III repeat

[8] = biological target: FnIII9-4G-10 (UniProt P02751); assay: phage ELISA on maleimide plates (HRP anti-M13); absorbance (450 nm minus 650 nm) on 4G divided by absorbance on 9*10

Chain of FnIII9-4G-10 (P02751 other isoform, or with tags, fused parts or gaps): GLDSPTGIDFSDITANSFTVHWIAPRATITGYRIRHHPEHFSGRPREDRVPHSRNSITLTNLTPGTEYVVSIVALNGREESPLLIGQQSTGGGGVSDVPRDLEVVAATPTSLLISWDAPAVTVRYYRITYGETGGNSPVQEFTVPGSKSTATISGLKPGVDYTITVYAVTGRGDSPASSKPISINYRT
T1 sequence (P02751 other isoform, or with tags, fused parts or gaps limits assumed): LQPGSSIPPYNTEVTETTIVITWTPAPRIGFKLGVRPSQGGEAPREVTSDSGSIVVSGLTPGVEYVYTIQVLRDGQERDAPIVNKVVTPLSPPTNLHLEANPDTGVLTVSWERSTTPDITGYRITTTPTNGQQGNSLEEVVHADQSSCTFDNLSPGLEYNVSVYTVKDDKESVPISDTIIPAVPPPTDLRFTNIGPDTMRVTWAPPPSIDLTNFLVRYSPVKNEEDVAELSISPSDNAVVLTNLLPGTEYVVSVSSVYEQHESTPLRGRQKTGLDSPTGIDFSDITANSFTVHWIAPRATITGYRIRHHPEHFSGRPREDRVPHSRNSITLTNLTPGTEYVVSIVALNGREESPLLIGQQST
T2 sequence (P02751 other isoform, or with tags, fused parts or gaps limits assumed): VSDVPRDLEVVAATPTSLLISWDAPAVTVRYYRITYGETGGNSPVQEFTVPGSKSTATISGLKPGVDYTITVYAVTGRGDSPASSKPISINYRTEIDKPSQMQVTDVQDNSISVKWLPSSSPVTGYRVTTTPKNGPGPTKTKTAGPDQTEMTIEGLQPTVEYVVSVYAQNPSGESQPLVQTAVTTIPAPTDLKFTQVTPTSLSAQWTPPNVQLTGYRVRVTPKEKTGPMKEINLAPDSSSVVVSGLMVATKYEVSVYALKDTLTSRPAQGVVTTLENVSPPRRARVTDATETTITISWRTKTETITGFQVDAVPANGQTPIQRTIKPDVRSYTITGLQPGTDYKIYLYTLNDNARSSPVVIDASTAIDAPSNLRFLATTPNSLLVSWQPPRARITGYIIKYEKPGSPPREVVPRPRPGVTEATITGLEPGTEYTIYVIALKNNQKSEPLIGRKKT

## integrin αvβ3 (R&D Systems) (from UniProt P06756 31-992; P05106 27-718) (receptor)
[1]
  Kd: 40 nM
[2]
  Kd: 40 nM

B1: H5 scFv (scFv)
scFv: EVQLLESGGGLVQPGGSLRLSCAASGFTFSSYAMSWVRQAPGKGLEWVSDIYDGGGTNYADSVKGRFTTSRDNSKNTLYLQMNSLRAEDTAVYYCAKTADNFDYWGQGTLVTVSSGGGGSGGGGSGGGGSTDIQMTQSPSSLSASVGDRVTITCRASQSISSYLNWYQQKPGKAPKLLIYAASTLQSGVPSRFSGSGSGTDFTLTISSLQPEDFATYYCQQANSAPTTFGQGTKVEIKRAAA
notes: Soluble scFv from E. coli, purified by Protein-A; also called clone H5; H5 antibody
[3]
  Kd: 107 nM
[4]
  Kd: 16 nM
[5]
  selectivity of binding (fold, against FnIII9-10 as reference): 10 fold
[6]
  Kd: 34.8 nM
[7]
  Kd: 5.1 µM
[8]
  4G/9*10 Ratio: 1.21 and 1.02 and 1.06

B2: H5 Modified Clone R1F8/R1H8 (scFv)
scFv: B1 scFv with A96T
[8]
  4G/9*10 Ratio: 1.42 and 1.33

B3: H5 Modified Clone R4B8 (scFv)
scFv: B1 scFv with D103Y
[8]
  4G/9*10 Ratio: 1.49

B4: H5 Modified Clone R2G3 (scFv)
scFv: B1 scFv with P41S, N73D
[8]
  4G/9*10 Ratio: 2.53

B5: H5 Modified Clone R1H6 (scFv)
scFv: B1 scFv with L78M
[8]
  4G/9*10 Ratio: 1.62
